Assay results reported in patent US11795460B2, “Compositions and methods for TTR gene editing and treating ATTR amyloidosis” (Intellia Therapeutics, Inc., priority 2017, dated 2023).
Strand notation (5' to 3'): a small letter for the sugar, then the base; units joined by * are phosphorothioate-linked, units joined directly phosphodiester-linked; [ ] holds rarer units or linkages, { } end groups; capitals alone tell only the bases. m = 2'-O-methyl; r = 2'-OH (RNA)

Experiments:
TTR [1] = experiment: TTR editing in primary cyno hepatocytes treated with LNP formulated Spy Cas9 mRNA (SEQ ID NO: 2) and sgRNAs (Tables 17, 18); type: cell-based, cynomolgus monkey; details: Table 17, LNP formulated Spy Cas9 mRNA (SEQ ID NO: 2) and sgRNA, 12.5 ng mRNA, 3.9 nM sgRNA, 72 hours
In short: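 Primary cynomolgus hepatocytes, 24 h after plating, dosed with LNPs (N:P about 4.5 or 6, mRNA:gRNA 1:1 by weight) pre-incubated 5 min at 37° C. in medium with 6% cyno serum, in an 8-point 2-fold dose response. Editing = indel/substitution reads over total reads by amplicon MiSeq sequencing.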

TTR [2] = experiment: TTR editing in primary human hepatocytes transfected with Spy Cas9 mRNA and sgRNAs (Table 13); type: cell-based; details: primary human hepatocytes co-transfected with Spy Cas9 mRNA (SEQ ID NO:2) and sgRNAs, 12.5 nM
Method: Primary liver hepatocytes. Primary human liver hepatocytes (PHH) and primary cynomolgus liver hepatocytes (PCH) (Gibco) were cultured per the manufacturer's protocol (Invitrogen, protocol 11.28.2012). In brief, the cells were thawed and resuspended in hepatocyte thawing medium with supplements (Gibco, Cat. CM7000) followed by centrifugation at 100 g for 10 minutes for human and 80 g for 4 minutes for cyno. The supernatant was discarded and the pelleted cells resuspended in hepatocyte plating medium plus supplement pack (Invitrogen, Cat. A1217601 and CM3000). Cells were counted and plated on Bio-coat collagen I coated 96-well plates (ThermoFisher, Cat. 877272) at a density of 33,000 cells/well for human or 60,000 cells/well for cyno (or 65,000 cells/well when assaying effects on TTR protein, described further below). Plated cells were allowed to settle and adhere for 6 or 24 hours in a tissue culture incubator at 37° C. and 5% CO2 atmosphere. After incubation cells were checked for monolayer formation and media was replaced with hepatocyte culture medium with serum-free supplement pack (Invitrogen, Cat. A1217601 and CM4000).
Lipofectamine RNAiMax (ThermoFisher, Cat. 13778150) based transfections were conducted as per the manufacturer's protocol. Cells were sequentially transfected with a lipoplex containing Spy Cas9 mRNA (100 ng), Lipofectamine RNAiMax (0.4 […]) and tracer RNA ([…]), Lipofectamine RNAiMax (0.4 μL/well) and OptiMem.
Transfected cells were harvested post-transfection at 24, 48, or 72 hours. The genomic DNA was extracted from each well of a 96-well plate using 50 μL/well BuccalAmp DNA Extraction solution (Epicentre, Cat. QE09050) per manufacturer's protocol. All DNA samples were subjected to PCR and subsequent NGS analyses, as described herein.
To quantitatively determine the efficiency of editing at the target location in the genome, sequencing was utilized to identify the presence of insertions and deletions introduced by gene editing.
Primers were designed around the target site within the gene of interest (e.g. TTR), and the genomic area of interest was amplified.
Additional PCR was performed per the manufacturer's protocols (Illumina) to add chemistry for sequencing. The amplicons were sequenced on an Illumina MiSeq instrument. The reads were aligned to a reference genome (e.g., the human reference genome (hg38), the cynomologus reference genome (mf5), the rat reference genome (rn6), or the mouse reference genome (mm10)) after eliminating those having low quality scores. The resulting files containing the reads were mapped to the reference genome (BAM files), where reads that overlapped the target region of interest were selected and the number of wild type reads versus the number of reads which contain an insertion, substitution, or deletion was calculated.
The editing percentage (e.g., the “editing efficiency” or “percent editing” or “indel frequency”) is defined as the total number of sequence reads with insertions/deletions (“indels”) or substitutions over the total number of sequence reads, including wild type.
Guides in modified sgRNA format targeting human and/or cyno TTR were delivered to primary human hepatocytes and primary cyno hepatocytes as described in Example 1. Percent editing was determined for crRNAs comprising each guide sequence across each cell type and the guide sequences were then rank ordered based on highest % edit. The screening data for the guide sequences in Table 2 in both cell lines are listed below (Table 12 through 15).

Molecule | 12.5 ng mRNA, 3.9 nM sgRNA Avg % Edit (TTR [1]) | Avg % Deletion (TTR [2]) | Avg % Edit (TTR [2]) | Avg % Insert (TTR [2])
G000489: TTR sgRNA modified sequence, Human, SEQ ID No. 96; guide sequence of CR003344 (nucleic acid) guide: mU*mU*mU*rGrArCrCrArUrCrArGrArGrGrArCrArCrUrGrUrUrUrUrArGrAmGmCmUmAmGmAmAmAmUmAmGmCrArArGrUrUrArArArArUrArArGrGrCrUrArGrUrCrCrGrUrUrArUrCrAmAmCmUmUmGmAmAmAmAmAmGmUmGmGmCmAmCmCmGmAmGmUmCmGmGmUmGmCmU*mU*mU*mU | 31.87% | 10.28% | 24.25% | 14.17%
G000492: TTR sgRNA modified sequence, Human, SEQ ID No. 99; guide sequence of CR003342 (nucleic acid) guide: mC*mU*mU*rCrUrCrUrArCrArCrCrCrArGrGrGrCrArCrGrUrUrUrUrArGrAmGmCmUmAmGmAmAmAmUmAmGmCrArArGrUrUrArArArArUrArArGrGrCrUrArGrUrCrCrGrUrUrArUrCrAmAmCmUmUmGmAmAmAmAmAmGmUmGmGmCmAmCmCmGmAmGmUmCmGmGmUmGmCmU*mU*mU*mU | 0.70% | 2.22% | 34.65% | 32.45%
G000490: TTR sgRNA modified sequence, Human, SEQ ID No. 97; guide sequence of CR003366 (nucleic acid) guide: mA*mA*mA*rUrArGrArCrArCrCrArArArUrCrUrUrArCrGrUrUrUrUrArGrAmGmCmUmAmGmAmAmAmUmAmGmCrArArGrUrUrArArArArUrArArGrGrCrUrArGrUrCrCrGrUrUrArUrCrAmAmCmUmUmGmAmAmAmAmAmGmUmGmGmCmAmCmCmGmAmGmUmCmGmGmUmGmCmU*mU*mU*mU | 15.23% | 5.38% | 24.72% | 19.38%
G000480: TTR sgRNA modified sequence, Human, SEQ ID No. 87; guide sequence of CR003353 (nucleic acid) guide: mA*mA*mA*rGrGrCrUrGrCrUrGrArUrGrArCrArCrCrUrGrUrUrUrUrArGrAmGmCmUmAmGmAmAmAmUmAmGmCrArArGrUrUrArArArArUrArArGrGrCrUrArGrUrCrCrGrUrUrArUrCrAmAmCmUmUmGmAmAmAmAmAmGmUmGmGmCmAmCmCmGmAmGmUmCmGmGmUmGmCmU*mU*mU*mU | 0.73% | 13.47% | 73.28% | 59.85%
G000485: TTR sgRNA modified sequence, Human, SEQ ID No. 92; guide sequence of CR003336 (nucleic acid) guide: mC*mC*mU*rCrCrUrCrUrGrCrCrUrUrGrCrUrGrGrArCrGrUrUrUrUrArGrAmGmCmUmAmGmAmAmAmUmAmGmCrArArGrUrUrArArArArUrArArGrGrCrUrArGrUrCrCrGrUrUrArUrCrAmAmCmUmUmGmAmAmAmAmAmGmUmGmGmCmAmCmCmGmAmGmUmCmGmGmUmGmCmU*mU*mU*mU | 1.43% | 1.97% | 30.82% | 28.87%
G000483: TTR sgRNA modified sequence, Human, SEQ ID No. 90; guide sequence of CR005298 (nucleic acid) guide: mU*mC*mC*rArCrUrCrArUrUrCrUrUrGrGrCrArGrGrArGrUrUrUrUrArGrAmGmCmUmAmGmAmAmAmUmAmGmCrArArGrUrUrArArArArUrArArGrGrCrUrArGrUrCrCrGrUrUrArUrCrAmAmCmUmUmGmAmAmAmAmAmGmUmGmGmCmAmCmCmGmAmGmUmCmGmGmUmGmCmU*mU*mU*mU | 0.73% | 23.85% | 27.82% | 4.05%
G000481: TTR sgRNA modified sequence, Human, SEQ ID No. 88; guide sequence of CR003345 (nucleic acid) guide: mU*mC*mU*rArGrArArCrUrUrUrGrArCrCrArUrCrArGrGrUrUrUrUrArGrAmGmCmUmAmGmAmAmAmUmAmGmCrArArGrUrUrArArArArUrArArGrGrCrUrArGrUrCrCrGrUrUrArUrCrAmAmCmUmUmGmAmAmAmAmAmGmUmGmGmCmAmCmCmGmAmGmUmCmGmGmUmGmCmU*mU*mU*mU | 49.20% | 19.77% | 34.30% | 14.62%
G000484: TTR sgRNA modified sequence, Human, SEQ ID No. 91; guide sequence of CR003367 (nucleic acid) guide: mA*mG*mA*rCrArCrCrArArArUrCrUrUrArCrUrGrGrArGrUrUrUrUrArGrAmGmCmUmAmGmAmAmAmUmAmGmCrArArGrUrUrArArArArUrArArGrGrCrUrArGrUrCrCrGrUrUrArUrCrAmAmCmUmUmGmAmAmAmAmAmGmUmGmGmCmAmCmCmGmAmGmUmCmGmGmUmGmCmU*mU*mU*mU | 0.10% | 29.48% | 43.37% | 13.98%
G000482: TTR sgRNA modified sequence, Human, SEQ ID No. 89; guide sequence of CR003365 (nucleic acid) guide: mU*mG*mU*rArGrArArGrGrGrArUrArUrArCrArArArGrGrUrUrUrUrArGrAmGmCmUmAmGmAmAmAmUmAmGmCrArArGrUrUrArArArArUrArArGrGrCrUrArGrUrCrCrGrUrUrArUrCrAmAmCmUmUmGmAmAmAmAmAmGmUmGmGmCmAmCmCmGmAmGmUmCmGmGmUmGmCmU*mU*mU*mU | 26.13% | 13.25% | 40.93% | 27.70%
G000491: TTR sgRNA modified sequence, Human, SEQ ID No. 98; guide sequence of CR003338 (nucleic acid) guide: mA*mU*mA*rCrCrArGrUrCrCrArGrCrArArGrGrCrArGrGrUrUrUrUrArGrAmGmCmUmAmGmAmAmAmUmAmGmCrArArGrUrUrArArArArUrArArGrGrCrUrArGrUrCrCrGrUrUrArUrCrAmAmCmUmUmGmAmAmAmAmAmGmUmGmGmCmAmCmCmGmAmGmUmCmGmGmUmGmCmU*mU*mU*mU | 6.37% | 3.60% | 45.93% | 42.42%
G000493: TTR sgRNA modified sequence, Human, SEQ ID No. 100; guide sequence of CR003368 (nucleic acid) guide: mA*mA*mG*rUrGrCrCrUrUrCrCrArGrUrArArGrArUrUrGrUrUrUrUrArGrAmGmCmUmAmGmAmAmAmUmAmGmCrArArGrUrUrArArArArUrArArGrGrCrUrArGrUrCrCrGrUrUrArUrCrAmAmCmUmUmGmAmAmAmAmAmGmUmGmGmCmAmCmCmGmAmGmUmCmGmGmUmGmCmU*mU*mU*mU | 7.63% | 0.97% | 11.55% | 10.65%
G000499: TTR sgRNA modified sequence, Human, SEQ ID No. 106; guide sequence of CR005303 (nucleic acid) guide: mU*mG*mA*rArUrCrCrArArGrUrGrUrCrCrUrCrUrGrArGrUrUrUrUrArGrAmGmCmUmAmGmAmAmAmUmAmGmCrArArGrUrUrArArArArUrArArGrGrCrUrArGrUrCrCrGrUrUrArUrCrAmAmCmUmUmGmAmAmAmAmAmGmUmGmGmCmAmCmCmGmAmGmUmCmGmGmUmGmCmU*mU*mU*mU | 14.63% | 0.77% | 39.30% | 38.58%
